Where two headings read alike, the source gives them in different places.
What was measured:
[1] = target: human telomeric nucleosome core particle (teloNCP) (human) (UniProt P68431); experiment: cryo-EM structure; TRF1core-teloNCP complex from the glycerol gradient, cross-linked with 0.5 mM BS3; 2:1 complex at 2.7 Å, 4:1 complex at 6.7 Å (rigid-body docking)
[2] = target: human telomeric nucleosome core particle (teloNCP) (human) (UniProt P68431); experiment: as above; remark: listed apart in the source
[3] = target: human telomeric nucleosome core particle (teloNCP), P68431;P62805;P04908;P06899; experiment: EMSA; conditions: point at 200 nM TRF1core; triplicate; parent: est. 100; read off a plot

wild-type MBP-tagged TRF1core (TRF1-TIN2-TPP1), sequence (Q9BSI4 whole entry, looked up): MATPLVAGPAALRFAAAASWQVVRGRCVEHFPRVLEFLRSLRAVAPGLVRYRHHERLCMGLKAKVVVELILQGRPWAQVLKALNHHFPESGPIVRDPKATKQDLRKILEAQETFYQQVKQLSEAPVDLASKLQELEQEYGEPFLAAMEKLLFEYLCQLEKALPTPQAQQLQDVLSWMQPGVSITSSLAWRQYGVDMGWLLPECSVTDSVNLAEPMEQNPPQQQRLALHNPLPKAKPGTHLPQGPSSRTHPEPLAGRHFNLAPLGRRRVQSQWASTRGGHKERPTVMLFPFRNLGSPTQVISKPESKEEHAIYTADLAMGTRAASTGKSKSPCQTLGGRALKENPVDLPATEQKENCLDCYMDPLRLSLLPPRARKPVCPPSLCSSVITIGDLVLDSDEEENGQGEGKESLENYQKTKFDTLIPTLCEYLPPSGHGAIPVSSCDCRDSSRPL
wild-type MBP-tagged TRF1core (TRF1-TIN2-TPP1), sequence (P54274 whole entry, looked up, stated change not applied): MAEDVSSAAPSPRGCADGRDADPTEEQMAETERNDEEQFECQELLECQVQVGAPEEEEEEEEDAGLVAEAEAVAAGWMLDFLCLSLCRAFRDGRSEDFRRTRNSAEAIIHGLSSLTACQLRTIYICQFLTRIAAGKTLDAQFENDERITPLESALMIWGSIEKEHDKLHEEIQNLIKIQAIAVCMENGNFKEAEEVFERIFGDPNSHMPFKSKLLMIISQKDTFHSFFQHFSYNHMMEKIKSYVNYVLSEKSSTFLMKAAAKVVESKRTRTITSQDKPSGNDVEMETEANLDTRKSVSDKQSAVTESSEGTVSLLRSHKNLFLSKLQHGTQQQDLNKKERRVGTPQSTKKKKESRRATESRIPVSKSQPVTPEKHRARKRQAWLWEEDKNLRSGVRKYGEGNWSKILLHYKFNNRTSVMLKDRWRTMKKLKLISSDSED

TRF1 Myb domains bound per teloNCP [1] | TRF1 Myb domains bound per teloNCP [2] | response [3] | Substance
4 | 2 |  | shelterin TRF1-TIN2-TPP1 subcomplex (TRF1core), untagged (from UniProt P54274 1-439; Q9BSI4 1-451)
 |  | 17 % Bound | wild-type MBP-tagged TRF1core (TRF1-TIN2-TPP1) (from UniProt P54274;Q9BSI4) S434A; S435A; S437A

— article PMC10456876
